Test results reported in patent US11759508B2, “Antigenic peptides for treatment of B-cell malignancy” (ENTEROME S.A., priority 2019, dated 2023).
Entries after “also recorded” stand apart in the source; their conditions may differ.

Columns and labels:
HLA-A*0201 = target: T1, HLA-A*0201 (Homo sapiens, UniProt P04439, D140Y/D185E/D98H/E176V/E277Q/G131W/G231S/I119V/I121R/I166T/I218V/L300P/L318F/N151K/N90K/P208A/P217A/Q86G/Q94H/R138H/R169H/T345S); assay: Affinity of the peptide to T2 cell line (HLA-A*0201 expression, FACS, relative to HIV pol 589-597); assay type: binding; settings: for Concentration of peptide that induces 20% of HLA-A2 expression: T2 cells, peptide 100-0.1 μM, 16 h, 37° C., anti-HLA-A2 FACS; for mean relative fluorescence intensity of T2 cells: normalized to HIV peptide = 100
T1 construct: human tumoral cell T2 which expresses the HLA-A*0201 molecule; endogenous in cells; host or cells: T2 cells (human, TAP1/2 negative)
Text: The experimental protocol is similar to the one that was validated for peptides presented by the HLA-A*0201 (Tourdot et al., A general strategy to enhance immunogenicity of low-affinity HLA-A2.1-associated peptides: implication in the identification of cryptic tumor epitopes. Eur J Immunol. 2000 December; 30(12):3411-21). Affinity measurement of the peptides is achieved with the human tumoral cell T2 which expresses the HLA-A*0201 molecule, but which is TAP ½ negative and incapable of presenting endogenous peptides.
T2 cells (5.104 cells per well) are incubated with decreasing concentrations of peptides from 100 μM to 0.1 μM (4 points: 100 μM, 10 μM, 1 μM, 0.1 μM) in serum-free medium (TexMacs) supplemented with […] of β2 Microglobulin at 37° C. for 16 hours. Cells are then washed two times and marked with the anti-HLA-A2 antibody coupled to PE (clone BB7.2, BD Pharmagen).
The analysis is achieved by FACS (Macsquant analyzer 10-Miltenyi).
For each peptide concentration, the geometric mean of the labelling associated with the peptide of interest is subtracted from background noise and reported as a percentage of the geometric mean of the […] labelling obtained for the reference peptide HIV pol 589-597 at a concentration of 100 μM. […] A2. Solubilisation of Peptides
T2 cells (5.104 cells per well) are incubated with decreasing concentrations of peptides from 100 μM to 0.1 μM (4 points: 100 μM, 10 μM, 1 μM, 0.1 μM) in serum-free medium (TexMacs) supplemented with 100 ng/μl of 32 Microglobulin at 37° C. for 16 hours. Cells are then washed two times and marked with the anti-HLA-A2 antibody coupled to PE (clone BB7.2, BD Pharmagen).
For each peptide concentration, the geometric mean of the labelling associated with the peptide of interest is subtracted from background noise and reported as a percentage of the geometric mean of the […] labelling obtained for the reference peptide HIV pol 589-597 at a concentration of 100 μM.

[1] = system: HLA-A2 HHD-DR1 humanized mice; assay: ELISPOT-IFNγ on splenocytes of vaccinated HLA-A2 HHD-DR1 transgenic mice; assay type: in vivo, mouse; settings: for cross-reactivity: T cell reaction after challenge with the human corresponding peptide: HHD-DR1 mice vaccinated with the bacterial peptide; for immunogenicity (T cell response in ELISPOT-IFNγ after vaccination): HHD-DR1 mice, prime d0 and boost d14, splenocytes d21
Text: (§1) Briefly, HLA-A2 HHD-DR1 humanized mice (C57BL/6JB2mtm1UncIAb-/-Tg(HLA-DRA, HLA-DRB1*0101)#GjhTg(HLA-A/H2-D/B2M)1Bpe) or HHD-DR3 humanized mice (C57BL/6JB2mtm1UncIAb-/-Tg(HLA-DRA,HLA-DRB1*0301)#GjhTg(HLA-A/H2-D/B2M)1Bpe) were assigned randomly (based on mouse sex and age) to experimental groups, wherein each group was immunized with a specific vaccination peptide (vacc-pAg) combined to a common helper peptide (h-pAg UCP2; sequence: […]; SEQ ID NO: 475; for HHD DR1 mice or h-pAg DR3; sequence […]; SEQ ID n° 473; for HHD DR3 mice) (as outlined in Table 4 below).
(§2) The peptides were provided as follows: • vacc-pAg: CD22-B1, CD19-B1, CD19-B2, CD37-B1, TNFRSF13C-B1 and MS4A1-B4 all produced and provided at a 4 mg/ml (4 mM) concentration; • h-pAg: DR3 or UCP2 re-suspended in pure distilled water at a 10 mg/mL concentration
(§3) The peptide formulation to be injected (emulsion) was prepared freshly on each day of injection and for each group. A mix for 10 animals was prepared using 2 mL luer lock syringes (460670 IV, B BRAUN) and luer connectors (Cole-Parmer, 45502-22): 500 μL of peptide mixture in syringe 1 was emulsified with 500 μL of IFA contained in syringe 2, at high speed as fast as possible until forming a thick (white foam) emulsion. Each emulsion was prepared in excess to compensate for the dead volumes at injection.
(§4) The animals were immunized on day 0 (do) with a prime injection, and on d14 with a boost injection. Each mouse was injected s.c. at tail base with 100 μL of an oil-based emulsion that contained: • 60nMole of vacc-pAg; 105nMole of UCP2 helper peptide (for HHD-DR1 mice) or 65nMole of DR3 helper peptide (for HHD-DR3 mice) • 10 μL of PBS to reach a total volume of 50 μL (per mouse); • Incomplete Freund's Adjuvant (IFA) added at 1:1 (v:v) ratio (50 μL per mouse). A.2 Analysis
(§5) Seven days after the boost injection (i.e. on d21), the animals were euthanized and the spleen was harvested. Splenocytes were prepared by mechanical disruption of the organ followed by 70 μm-filtering and Ficoll density gradient purification.
(§6) The cell suspensions were further used in an ELISPOT-IFNγ assay (Table 5). The cells were cultured in 200 μL of complete T cell medium. Experimental conditions (duplicates) were as follow: 2×10^5 total cells per well when cultured in presence of various pAg (10 μM) or medium-only; and 2×10^4 total cells when cultured in presence of CD3/CD28-loaded bead particles (T cell Activation/Expansion kit, 130-093-627, Miltenyi) (bead-to-cell ratio of 1:1). The cultures were assessed for their capacity to secrete IFNγ (Diaclone Kit Murine IFNγ ELISpot, 862.031-005PC), following the manufacturer's instructions (˜16-18 h incubation time before performing the assay). The peptides used for restimulation are described in Table 5.
(§7) Spots were counted on a CTL ELISpot reader. Data plotting and statistical analysis were performed with the Prism-5 software (GraphPad Software Inc.).
(§8) The data were provided as a number of spots per 1·10^6 total T cells. The individual average values (obtained from the triplicates) were next used to plot the group average values. Statistical analysis for comparison (to the medium condition) were performed using unpaired non-parametric test (Mann Whitney) (**: p<0.01; *: p<0.05).

[2] = system: CD8 T cells from PBMCs of HLA-A*02 healthy donors; assay: Detection of antigenic peptide-specific CD8 T cells with pMHC multimers after in vitro amplification; assay type: cell-based, human; settings: one HLA-A2 healthy donor, after cell amplification (FIG. 17)
Text: In vitro amplification method and specific pMHC multimers have been used for identification of CD22-B1, CD37-B1, TNFRSF13C-B1 and MS4A1-B4 specific T cells. pMHC multimers were generated for all the bacteria peptides and their respective human counterpart. PBMCs from several HLA-A*02 healthy donors (up to 19 donors) were collected, enriched after CD137 and CD8 selection and subjected to multiple rounds of in vitro amplification with EO2463 peptides loaded T2 cells to increase the number of specific T cell clones. Detection of OMP peptide specific CD8 T cells using cytometry analysis with the fluorescent multimer was performed on enriched CD8 T cell populations

[3] = system: HLA-A2 HHD-DR3 humanized mice; assay: ELISPOT-IFNγ on splenocytes of vaccinated HLA-A2 HHD-DR3 transgenic mice; assay type: in vivo, mouse; settings: for immunogenicity (ELISPOT-IFNγ), FIGS. 11-13: HHD DR3 mice (printed as HHD DR1); for cross-reactivity of the T cells for the corresponding human peptides: summary statement for HHD DR3 and HHD DR1 mice
Text: as §1, §2, §3, §4, §5, §6, §7, §8

[4] = system: T2 cells loaded with bacterial peptide or human counterpart peptide; assay: Cytotoxic assay of peptide-specific CD8+ T cells against peptide-loaded T2 cells (flow cytometry); assay type: cell-based; settings: for killing of T2 cells loaded with the bacteria peptide by peptide-specific human T cell clones: clones expanded in vitro, FIG. 18; for killing of T2 cells loaded with the human TNFR13C (BAFF-R) or MS4A1 (CD20) peptide by peptide-specific human T cell clones: when cross-reactivity is observed with the staining (FIG. 17)
Text: CD8+ T cells expanded per above were used to perform cytotoxic assays in presence of different ratios of target and effector cells to assess their cytotoxic capacity, using flow cytometry readout. Target cells were T2 cell lines loaded with bacterial peptide or human counterpart peptide. Negative control was T2 cells unloaded and T2 cells loaded with irrelevant peptide. […] More importantly, CD22-B1, CD37B1, TNFRSF13C-B1 and MS4A1-B4-specific human T cells clones expanded in vitro were able to kill T2 cells loaded with the human TNFR13C (BAFF-R) or MS4A1 (CD20) peptide when cross-reactivity is observed with the staining (FIG. 17).

FMPGLLFGA [TNFRSF13C-B33]
Concentration of peptide that induces 20% of HLA-A2 expression (HLA-A*0201): 13.20 µM

YVFEHPELL [CD22-B11]
Concentration of peptide that induces 20% of HLA-A2 expression (HLA-A*0201): 0.2 µM

LQMGGFYLL [CD19-B7]
Concentration of peptide that induces 20% of HLA-A2 expression (HLA-A*0201): 49.63 µM

GLAFVPLQI (listed as Homo sapiens) [CD37-H1, reference compound]
Concentration of peptide that induces 20% of HLA-A2 expression (HLA-A*0201): 7.35 µM

YLAYLIFEL [CD19-B6]
Concentration of peptide that induces 20% of HLA-A2 expression (HLA-A*0201): 3.76 µM

SLFLGILSV (listed as Homo sapiens) [MS4A1-H5, reference compound]
mean relative fluorescence intensity of T2 cells (HLA-A*0201; peptide 0.1 (μM)): 0 | mean relative fluorescence intensity of T2 cells (HLA-A*0201; peptide 1 (μM)): 1.8 | mean relative fluorescence intensity of T2 cells (HLA-A*0201; peptide 10 (μM)): 6.5

LLFGAPALL (listed as Homo sapiens) [TNFRSF13C-H1, reference compound]
Concentration of peptide that induces 20% of HLA-A2 expression (HLA-A*0201): 11.76 µM

ILPGLLFGL [TNFRSF13C-B31]
Concentration of peptide that induces 20% of HLA-A2 expression (HLA-A*0201): 1.60 µM

SLVGILHII [CD19-B11]
Concentration of peptide that induces 20% of HLA-A2 expression (HLA-A*0201): 5.97 µM

ILIPAGIYL [MS4A1-B3]
Concentration of peptide that induces 20% of HLA-A2 expression (HLA-A*0201): 0.70 µM

LMFGAPALV [TNFRSF13C-B1]
cross-reactivity: T cell reaction after challenge with the human corresponding peptide [1]: react strongly | immunogenicity (T cell response in ELISPOT-IFNγ after vaccination) [1]: significant T cell responses; also recorded: strongly immunogenic | Concentration of peptide that induces 20% of HLA-A2 expression (HLA-A*0201): 4.35 µM | peptide-specific CD8 T cells detected with fluorescent multimer [2]: 13% | immunogenicity (ELISPOT-IFNγ), FIGS. 11-13 [3]: confirmed | cross-reactivity of the T cells for the corresponding human peptides [3]: shown | killing of T2 cells loaded with the bacteria peptide by peptide-specific human T cell clones [4]: capacity to kill | killing of T2 cells loaded with the human TNFR13C (BAFF-R) or MS4A1 (CD20) peptide by peptide-specific human T cell clones [4]: able to kill

YILGGLLMV [MS4A1-B12]
Concentration of peptide that induces 20% of HLA-A2 expression (HLA-A*0201): 31.20 µM

WVFEHPETL (listed as Homo sapiens) [CD22-H1, reference compound]
Concentration of peptide that induces 20% of HLA-A2 expression (HLA-A*0201): 1.97 µM

GMAFVPLLL [CD37-B11]
Concentration of peptide that induces 20% of HLA-A2 expression (HLA-A*0201): 2.30 µM

TLLFLTPML [CD19-B2]
cross-reactivity: T cell reaction after challenge with the human corresponding peptide [1]: react strongly | immunogenicity (T cell response in ELISPOT-IFNγ after vaccination) [1]: significant T cell responses; also recorded: strongly immunogenic | Concentration of peptide that induces 20% of HLA-A2 expression (HLA-A*0201): 0.38 µM | cross-reactivity of the T cells for the corresponding human peptides [3]: shown

YLFLGILSL [MS4A1-B5]
Concentration of peptide that induces 20% of HLA-A2 expression (HLA-A*0201): 6.77 µM

IMNSLSLFA (listed as Homo sapiens) [MS4A1-H4, reference compound]
Concentration of peptide that induces 20% of HLA-A2 expression (HLA-A*0201): >100 µM

TLAYLIFCL (listed as Homo sapiens) [CD19-H6, reference compound]
Concentration of peptide that induces 20% of HLA-A2 expression (HLA-A*0201): 4.98 µM

AMNSLSLYI [MS4A1-B4]
cross-reactivity: T cell reaction after challenge with the human corresponding peptide [1]: react strongly | immunogenicity (T cell response in ELISPOT-IFNγ after vaccination) [1]: significant T cell responses; also recorded: strongly immunogenic | Concentration of peptide that induces 20% of HLA-A2 expression (HLA-A*0201): 12.3 µM | peptide-specific CD8 T cells detected with fluorescent multimer [2]: 19.7% | immunogenicity (ELISPOT-IFNγ), FIGS. 11-13 [3]: confirmed | cross-reactivity of the T cells for the corresponding human peptides [3]: shown | killing of T2 cells loaded with the bacteria peptide by peptide-specific human T cell clones [4]: capacity to kill | killing of T2 cells loaded with the human TNFR13C (BAFF-R) or MS4A1 (CD20) peptide by peptide-specific human T cell clones [4]: able to kill

LLVGILHLV [CD19-B1]
cross-reactivity: T cell reaction after challenge with the human corresponding peptide [1]: react strongly | immunogenicity (T cell response in ELISPOT-IFNγ after vaccination) [1]: significant T cell responses; also recorded: strongly immunogenic | Concentration of peptide that induces 20% of HLA-A2 expression (HLA-A*0201): 3.7 µM | cross-reactivity of the T cells for the corresponding human peptides [3]: shown

LMIPAGIYA (listed as Homo sapiens) [MS4A1-H3, reference compound]
Concentration of peptide that induces 20% of HLA-A2 expression (HLA-A*0201): 4.83 µM

MS4A1-B41 (ILNSLSLLL)
Concentration of peptide that induces 20% of HLA-A2 expression (HLA-A*0201): 2.45 µM
